Patent US20240415886A1

Key:
[1] = molecular target: mutated p53^R175H peptide (…) presented by HLA-A2 on target cells (human); assay: cell-based or functional assay
[2] = molecular target: p53^R175H/HLA-A2 tetramer labeled with PE (p53^R175H peptide … with Flex-T HLA-A*02:01 monomer, Biolegend cat #280003) (human); assay: flow cytometry, PE tetramer staining of gated CD8+GFP+ TCR-transduced primary T cells

B1: inventive TCR specific for the mutated p53^R175H peptide in the context of HLA-A2, with murine alpha and beta constant regions, expressed from lentiviral … (TCR)
TCR alpha: GIQVEQSPPDLILQEGANSTLRCNFSDSVNNLQWFHQNPWGQLINLFYIPSGTKQNGRLSATTVATERYSLLYISSSQTTDSGVYFCAVNQAGTALIFGKGTTLSVSSNIQNPEPAVYQLKDPRSQDSTLCLFTDFDSQINVPKTMESGTFITDKTVLDMKAMDSKSNGAIAWSNQTSFTCQDIFKETNATYPSSDVPCDATLTEKSFETDMNLNFQNLSVMGLRILLLKVAGFNLLMTLRLWSS
TCR beta: EPEVTQTPSHQVTQMGQEVILRCVPISNHLYFYWYRQILGQKVEFLVSFYNNEISEKSEIFDDQFSVERPDGSNFTLKIRSTKLEDSAMYFCASMGTGDEAFFGQGTRLTVVEDLRNVTPPKVSLFEPSKAEIANKQKATLVCLARGFFPDHVELSWWVNGKEVHSGVSTDPQAYKESNYSYCLSSRLRVSATFWHNPRNHFRCQVQFHGLSEEDKWPEGSPKPVTQNISAEAWGRADCGITSASYQQGVLSATILYEILLGKATLYAVLVSTLVVMAMVKRKNS
Q: Which results are given for B1?
A: avidity (lowest activating peptide concentration), CD8+ primary T cells against CD8-negative JRT cells [1]: 10 fold; percentage of CD8+CD137+ cells in the gated GFP+ cells [1]: 1 ng/mL; percentage of CD69+ cells in the gated GFP+ JRT cells [1]: 10 ng/mL

B2: inventive TCR specific for the mutated p53^R175H peptide in the context of HLA-A2, with murine alpha and beta constant regions, expressed from lentiviral … (TCR, V domains shown)
V domain 1: GIQVEQSPPDLILQEGANSTLRCNFSDSVNNLQWFHQNPWGQLINLFYIPSGTKQNGRLSATTVATERYSLLYISSSQTTDSGVYFCAVNQAGTALIFGKGTTLSVSS
V domain 2: EPEVTQTPSHQVTQMGQEVILRCVPISNHLYFYWYRQILGQKVEFLVSFYNNEISEKSEIFDDQFSVERPDGSNFTLKIRSTKLEDSAMYFCASMGTGDEAFFGQGTRLTVVE
Q: Which percent of cells binding tetramer [2] does the source give for B2 here?
A: 82.9%
